According to US7442519B2, “KCNQ2-15 potassium channel” (priority 2002, dated 2008):

T1: PP2A/Bγ (Homo sapiens, UniProt Q9Y2T4, E66D/G293D/R253P)
T1 construct: The full-length coding region of the PPP2R2C gene, which encodes the PP2A/Bγ subunit; expressed in transfected cells; host or cells: Saccharomyces cerevisiae (AH109 / Y184 mating partners)
T1 sequence (Q9Y2T4 1-447 E66D/R253P/G293D): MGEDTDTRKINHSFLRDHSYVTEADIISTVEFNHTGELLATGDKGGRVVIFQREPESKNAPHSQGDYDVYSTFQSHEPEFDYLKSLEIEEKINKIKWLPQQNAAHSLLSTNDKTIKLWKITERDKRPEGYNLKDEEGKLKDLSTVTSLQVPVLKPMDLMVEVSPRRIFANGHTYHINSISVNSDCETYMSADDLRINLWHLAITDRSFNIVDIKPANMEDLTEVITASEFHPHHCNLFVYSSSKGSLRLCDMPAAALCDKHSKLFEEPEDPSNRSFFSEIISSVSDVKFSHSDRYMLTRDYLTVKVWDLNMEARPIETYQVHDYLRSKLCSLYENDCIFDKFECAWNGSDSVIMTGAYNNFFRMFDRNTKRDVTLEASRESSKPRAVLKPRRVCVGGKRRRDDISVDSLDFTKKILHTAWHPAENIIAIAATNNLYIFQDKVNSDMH

B1: KCNQ2-15by: polypeptide of SEQ ID NO: 4, novel KCNQ2 splice variant (protein, listed as Homo sapiens)
chain: MVQKSRNGGVYPGPSGEKKLKVGFVGLDPGAPDSTRDGALLIAGSEAPKRGSILSKPRAGGAGAGKPPKRNAFYRKLQNFLYNVLERPRGWAFIYHAYVFLLVFSCLVLSVFSTIKEYEKSSEGALYILEIVTIVVFGVEYFVRIWAAGCCCRYRGWRGRLKFARKPFCVIDIMVLIASIAVLAAGSQGNVFATSALRSLRFLQILRMIRMDRRGGTWKLLGSVVYAHSKELVTAWYIGFLCLILASFLVYLAEKGENDHFDTYADALWWGLITLTTIGYGDKYPQTWNGRLLAATFTLIGVSFFALPAGILGSGFALKVQEQHRQKHFEKRRNPAAGLIQSAWRFYATNLSRTDLHSTWQYYERTVTVPMYSSQTQTYGASRLIPPLNQLELLRNLKSKSGLAFRKDPPPEPSPSQKVSLKDRVFSSPRGVAAKGKGSPQAQTVRRSPSADQSLEDSPSKVPKSWSFGDRSRARQAFRIKGAASRQNSEEASLPGEDIVDDKSCPCEFVTEDLTPGLKVSIRAVCVMRFLVSKRKFKESLRPYDVMDVIEQYSAGHLDMLSRIKSLQSRQEPRLPVQQGTRTGWASGTKPTVAHGGSAGGVWAGPPPHPRRPLSASVVSSQSLF
B2: GST-2E11: fusion protein between a KCNQ2-15b polypeptide comprising exons 13, 14 and 15b and GST (protein)
chain: SSQKVSLKDRVFSSPRGVAAKGKGSPQAQTVRRSPSADQSLEDSPSKVPKSWSFGDRSRARQAFRIKGAASRQNSEEASLPGEDIVDDKSCPCEFVTEDLTPGLKVSIRAVCVMRFLVSKRKFKESLRPYDVMDVIEQYSAGHLDMLSRIKSLQSRQEPRLPVQQGTRTGWASGTKPTVAHGGSAGGVWAGPPPHPRRPLSASVVSSQSLF
modifications: left off: a dimerising Fc or GST
notes: fusion protein between a KCNQ2-15b polypeptide comprising exons 13, 14 and 15b and GST
B3: KCNQ2-15bx: polypeptide of SEQ ID NO: 2, novel KCNQ2 splice variant (protein, listed as Homo sapiens)
chain: MVQKSRNGGVYPGPSGEKKLKVGFVGLDPGAPDSTRDGALLIAGSEAPKRGSILSKPRAGGAGAGKPPKRNAFYRKLQNFLYNVLERPRGWAFIYHAYVFLLVFSCLVLSVFSTIKEYEKSSEGALYILEIVTIVVFGVEYFVRIWAAGCCCRYRGWRGRLKFARKPFCVIDIMVLIASIAVLAAGSQGNVFATSALRSLRFLQILRMIRMDRRGGTWKLLGSVVYAHSKELVTAWYIGFLCLILASFLVYLAEKGENDHFDTYADALWWGLITLTTIGYGDKYPQTWNGRLLAATFTLIGVSFFALPAGILGSGFALKVQEQHRQKHFEKRRNPAAGLIQSAWRFYATNLSRTDLHSTWQYYERTVTVPMYSSQTQTYGASRLIPPLNQLELLRNLKSKSGLAFRKDPPPEPSPSKGSPCRGPLCGCCPGRSSQKVSLKDRVFSSPRGVAAKGKGSPQAQTVRRSPSADQSLEDSPSKVPKSWSFGDRSRARQAFRIKGAASRQNSEEASLPGEDIVDDKSCPCEFVTEDLTPGLKVSIRAVCVMRFLVSKRKFKESLRPYDVMDVIEQYSAGHLDMLSRIKSLQSRQEPRLPVQQGTRTGWASGTKPTVAHGGSAGGVWAGPPPHPRRPLSASVVSSQSLF

What was measured:
GSK-3β and PKA = test: In vitro phosphorylation assay of GST-2E11 with recombinant GSK-3β kinase and PKA; format: biochemical; settings: LiCl added to the kination mix; signal negatively correlated with LiCl concentration
Protocol: Expression and purification of the GST-2E11 fusion protein were performed as described above. Beads with bound fusion protein corresponding to 1 ml of bacterial clear lysate were washed three times in NETN and one time with HMK buffer without DTT (20 mM Tris-HCl [pH 7.5], 120 mM NaCl, 12 mM MgCl2). Beads were resuspended in 240 μl of reaction mix (24 μl of 10×HMK Buffer with 20 mM DTT, 40 units of Protein Kinase A Catalytic Subunit [PKA from bovine heart, 250 units/vial, Sigma] in 40 mM DTT, 5 μl of 24 mM ATP and 207 μl of distilled water) and incubated for 30 min at room temperature. Beads were then washed three times in NETN buffer and one time in GSK-3β reaction buffer (20 mM Tris-HCl [pH 7.5], 10 mM MgCl2, 5 mM DTT) (New England Biolabs). Beads were then resuspended in 50 μl of reaction mix (5 μl of 10×GSK-3β reaction buffer, 1 μl of [^32P]γATP 10 mCi/ml, 50 U of recombinant GSK-3β[New England Biolabs], and distilled water for a final volume of 50 μl) and incubated at room temperature for 30 min. After three washes in NETN buffer, phosphorylated proteins were boiled in 2×Sample Buffer (125 mM Tris-HCl [pH 6.8], 4% SDS, 20% glycerol, 1.4 M β-Mercapto ethanol), resolved by 10% SDS-PAGE, and visualized by autoradiography.
In this phosphorylation assay, non-radiolabeled polypeptides to be tested are incubated in the presence of GSK-3β, PKA and radioactive ATP. […]

Xenopus laevis oocytes = test: Electrophysiological analysis (two-electrode voltage clamp) of homotetrameric potassium channels; format: cell-based; settings: 0.4 ng of DNA injected
Protocol: The animal was anesthetized and pieces of the ovary were surgically removed and individual oocytes were dissected away in a saline solution (ND96) containing 96 mM NaCl, 2 mM KCl, 2 mM CaCl2, 2 mM MgCl2 and 5 mM HEPES at pH 7.4. Stage V and VI oocytes were treated at room temperanre for 2 h with collagenase type 1A (1 mg/ml) in the presence of 0.2 mg/ml trypsin inhibitor in saline solution to discard follicular cells. […] DNA corresponding to KCNQ2, 3H2 and 3H9 K+ channels were subcloned in PEKO vector in order to generate the respective cRNAS. cRNA concentrations were measured by absorbance at 260 nm. cRNA solutions were injected (about 50 nL/oocyte) using a pressure microinjector (Inject+matic, Geneve). Oocytes were then kept for 2-6 days in ND96 solution supplemented wirn 50 U/mL penicillin and 50 U/mL streptomycin.
In a 0.3 mL perfusion chamber, a single oocyte was impaled with two standard glass microelectrode (0.5-2 Mohm resistance) filled with 3M KCl and maintained under voltage clamp using a Dagan TEV200 amplifier system, USA. Electrical stimulations, data acquisition and analyses were performed using pClamp software (Axon Instruments, USA). […]

PP2A/Bγ = target: T1, PP2A/Bγ; test: Solid phase overlay assay with radiolabeled GST-PPP2R2C probe; format: binding; settings: 100 ng, 10 ng and 0.1 ng loaded; band intensity proportional to loaded quantity
Protocol: Solid phase overlay assays were performed by adapting the method described by Kaelin and collaborators (Kaelin et al., 1992, Cell, 70:351-364). 100 ng, 10 ng and 0.1 ng of GST and GST-2E11 recombinant proteins were resolved by 9% SDS-PAGE and were transferred by electroblotting onto nitrocellulose membrane (nitrocellulose transfer membrane Protran BA 83, Schleicher and Schuell). The membrane were then blocked in HBB buffer (25 mM Hepes-KOH [pH 7.7], 25 mM NaCl, 5 mM MgCl2) with 5% (w/v) non-fat dry milk, 1 mM DTT, 0.05% Nonidet P-40 for 1 hr at room temperature. The binding reaction was carried out at room temperature in Hyb75 buffer (20 mM Hepes [pH 7.7], 75 mM KCl, 2.5 mM MgCl2, 0.1 mM EDTA, 0.05% Nonidet P-40) with 1% (w/v) non-fat dry milk, 1 mM DTT, 1 mM PMSF and 3.5 10^5dpm of a [^32P]-γATP GST-PPP2R2C radiolabeled recombinant protein used as a probe. After 4.5 hr of incubation, the membrane was washed with Hyb75 buffer, 1 mM DTT, 1% (w/v) non-fat dry milk three times for 15 min at room temperature. The blots were analyzed by autoradiography.
This experiment was performed to validate the interaction between KCNQ2-15b polypeptides and PP2A/Bγ. In this experiment, the PP2A/Bγ subunit was radiolabeled but not the proteins present on the nitrocellulose membrane. […] Furthermore, the intensity of the bands was proportional to the quantity of loaded GST-2E11. […]

Molecule | intensity of the M-current generated by the homotetrameric potassium channel (Xenopus laevis oocytes) | other results
[Cl-].[Li+] [LiCl] |  | intensity of the phosphorylated GST-2E11 band (GSK-3β and PKA): decreased
B1 | about 700 nA | 
B2 |  | interaction with PP2A/Bγ (band by autoradiography) (PP2A/Bγ): interacts
B3 | about 800 nA | 
